Data on 141 substances can be found in the supplement of paper PMC12042874.

± gives the uncertainty stated by the source.

The series is described as follows: amyloid nucleation score (Sup35N fusion, yeast selection) (log enrichment); library NNK1; higher = more nucleation; inactive = no reads after selection. In outline:
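The nucleation score is the log enrichment of output over input reads, calculated with DiMSum and centred on the mode score of non-aggregating sequences. Sequences with under 100 input reads were excluded. Reads came from Illumina sequencing of plasmid inserts from psi-negative yeast expressing Sup35N fused to peptides of 20 random codons, induced 24 hours with 100 μM copper sulfate and grown 7 days at 30°C without adenine and uracil.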
On to DATTTLFL, for which the amyloid nucleation score was -0.281 ± 0.77.

DAVSGGVFNCVLFNKVLSLM: the amyloid nucleation score was -0.597 ± 0.32. DAVSYNSPGGELYDLFNLTA: the amyloid nucleation score is -0.994 ± 0.97. The substance DAYVLD returned an amyloid nucleation score of 0.314 ± 0.34. As for DCFARVLLTMRYLKGVVYTE, the amyloid nucleation score is 1.13 ± 0.27. Substance DCFYLSIGRIFFHP returned an amyloid nucleation score of 2.92 ± 0.21. With DCIACRECSMTSKLLGGLGT, the amyloid nucleation score amounted to 0.859 ± 0.39.

Consider DCKAYSIRSNV, for which the amyloid nucleation score is 0.705 ± 0.36. Regarding DDKITSLLVMSRDKVKPMSD, the amyloid nucleation score entry is “inactive”. For DDLTVMVGPYMGGS, the amyloid nucleation score is -0.82 ± 1.1. In turn, DDMCFLN showed an amyloid nucleation score of 0.797 ± 0.34. Substance DDRVSQLAWGLCAVSYARLE came in with an amyloid nucleation score of 0.681 ± 0.54. Turning to DDSGRL, the amyloid nucleation score was 0.494 ± 0.59. As for DDTIFLMRAIMVFNLICWCV, the amyloid nucleation score result was “inactive”. For DDVVWNYSTA, the amyloid nucleation score is -0.487 ± 0.58.

Regarding DEDERWCLDIVG, the amyloid nucleation score was -0.076 ± 0.37.

Turning to DEFSFDSSLLMLFGAGYGV, the amyloid nucleation score was 0.932 ± 0.62. As to DFCFPSNVRGLDCGGSKGYR, the amyloid nucleation score result was “inactive”. As to DFCLNGSYFNTLDNSGCSSL, the amyloid nucleation score was -0.114 ± 0.52. For DFENWPVRLWYFKTIFLRS the value was 1.93 ± 0.51; for DFILLVVLYFVLYFFTCMVL, 0.22 ± 0.72. In turn, DFRKDWYWESPASRFFTNEV gave an amyloid nucleation score of 0.44 ± 0.53. As for DFSVQKSGSYQTEHYLVFRN, the amyloid nucleation score was -0.12 ± 0.21. For DFVETEFRLRRD, the amyloid nucleation score entry is “inactive”. As for DGAYWELSY, the amyloid nucleation score was -0.506 ± 0.27.

The substance DGEFRRDSSCVGVEERVVLV gave an amyloid nucleation score of 0.551 ± 1.2. With DGELMAYLSDGNQG, the amyloid nucleation score result was “inactive”.

Regarding DGFMCFLYKLASQT, the amyloid nucleation score is 0.158 ± 0.78.

DGLLSIEYMNVYSSS yielded an amyloid nucleation score of 0.326 ± 0.77. With DGNLKSR, the amyloid nucleation score was found to be 0.644 ± 0.78. DGSCKLYVVFRPAVLGHGHS registered an amyloid nucleation score of 1.05 ± 0.85.

In the case of DGSGRGRALTVTIDWAVQLV, the amyloid nucleation score was 0.26 ± 0.88.

DGSVGFLMLEVCLWHSFLAC: the amyloid nucleation score result was “inactive”. In the case of DGVRTDLVILFWQCDHYEL, the amyloid nucleation score was -0.516 ± 0.43. DGYFQFKFYCTEMGMLFCFF: the amyloid nucleation score is -1.24 ± 0.56.

In the case of DGYGLIFW, the amyloid nucleation score is -0.268 ± 0.47. As to DHFKKILGLCKSGCRVVERE, the amyloid nucleation score came out at 0.759 ± 0.41. Turning to DHLYLMV, the amyloid nucleation score was 1.04 ± 0.72. In turn, DIATCRIWTVCTCQMCFISV had an amyloid nucleation score of 6.17 ± 0.089.

On to DIDFLLNLCESNLIFANM, for which the amyloid nucleation score was -0.887 ± 0.87. In the case of DIERMKVPELFCLLSLDTGP, the amyloid nucleation score is -0.376 ± 1.7. With DIFSA, the amyloid nucleation score amounted to 1.49 ± 0.43. In turn, DIKCLLR registered an amyloid nucleation score of 0.238 ± 0.36. For the substance DIVDARFTLTGFKFECVR, the amyloid nucleation score was 0.297 ± 0.28. Turning to DKCCKLSRD, the amyloid nucleation score came to 0.972 ± 0.58. For DKLDSLIRVLNRLDNL, the amyloid nucleation score was -0.316 ± 0.4. The substance DKLSNVFLFLTDGCLNFNSF showed an amyloid nucleation score of 3.1 ± 0.11. On to DKPIV, for which the amyloid nucleation score was -0.09 ± 0.88. Consider DKRKVRFAVMFNWRRELRY, for which the amyloid nucleation score stood at 0.708 ± 0.7. For DKWRVRCCRFWLT the value was 0.191 ± 0.29; for DLAWWMSCAHFMSMTRGLQR, 0.595 ± 0.36; for DLGNLFLGISVKCI, 0.961 ± 0.53. Consider DLIYTDGLV, for which the amyloid nucleation score was -0.743 ± 0.24. DLLDLIQISDSLKILNALPE yielded an amyloid nucleation score of 0.845 ± 0.18. Substance DLNLFDRNHVELRMIVD came in with an amyloid nucleation score of 0.726 ± 0.65. Regarding DLQCVAKVHESVGLGHHVHE, the amyloid nucleation score worked out at 0.659 ± 0.5. DLVCDFYVGLV returned an amyloid nucleation score of 2.42 ± 0.085.

DLYFIKDSTLCTISLFLIYW gave an amyloid nucleation score of 0.324 ± 1.2. For DLYKSVPKHNQSNMSDSTES, the amyloid nucleation score is -0.631 ± 0.6. As to DMKNDYLHVGFWVLIGWHYL, the amyloid nucleation score turned out to be 0.743 ± 0.37. In turn, DMKNYVPVLLGNTMIMLWGL yielded an amyloid nucleation score of 3.08 ± 0.085. The substance DMLRMVRYTVWVSRVRSHGW came in with an amyloid nucleation score of 3.07 ± 0.079. For the substance DMLSEIFGSSPNEYAPH, the amyloid nucleation score was 0.521 ± 0.29. With DNDYDLDPVGIRVHLFNQ, the amyloid nucleation score result is “inactive”.

In turn, DNGLGRRWARAKYKECRKAR gave an amyloid nucleation score of 0.141 ± 0.27.

The substance DNGVLQNNWVIMYCELHHGV showed an amyloid nucleation score of 5.691 ± 0.052. In the case of DNLNYEMHVLWMCNL, the amyloid nucleation score was 4.82 ± 0.056. DNNTVITIEQC: the amyloid nucleation score came out at 0.286 ± 1. For the substance DNRLVSSGMRRGHSGWIGGT, the amyloid nucleation score worked out at 0.505 ± 0.71. Consider DNRVLVPRRAFNDHIWCMYV, for which the amyloid nucleation score is -0.23 ± 0.61.

Take DNTHSSFIHFETGKKYYA: the amyloid nucleation score is 0.319 ± 0.78. For DPAYEQGGLFEVGTIHCNIK the value was 0.527 ± 0.46.

In turn, DPDHGPFQNNVWQRRPRWSH came in with an amyloid nucleation score of 0.124 ± 0.47. For DPTTPYDISGIWLRLEVRAD, the amyloid nucleation score was -0.175 ± 0.46.

Regarding DPVTDVFG, the amyloid nucleation score is -0.541 ± 0.36. Substance DQITYVPIMNQMMWATLLTF registered an amyloid nucleation score of 0.849 ± 0.59. The substance DQRVDR yielded an amyloid nucleation score of 0.107 ± 0.89.

DRLGDHLKDILVKFYNV registered an amyloid nucleation score of 0.294 ± 0.99.

In turn, DRLMFRYSIRRIRFVSESSP gave an amyloid nucleation score of 1.41 ± 0.43. On to DRLSAT, for which the amyloid nucleation score came out at 0.272 ± 1.2. The substance DRRFRIITHLANSLIWNKWQ gave an amyloid nucleation score of 0.076 ± 0.49. DRRKAPGLMNAMD returned an amyloid nucleation score of 0.737 ± 0.97. For DRTTNVEYWLGAEMLSSRTV the value was -0.469 ± 0.78; for DRVCILEQLDRSRGATVCAR, 1.24 ± 0.76. As to DRWRSL, the amyloid nucleation score is -0.582 ± 0.96. As for DSEQGRLIYICFRVTTIRAL, the amyloid nucleation score was -0.062 ± 0.36. Substance DSGDEGVIVSVSHGWTSEGL showed an amyloid nucleation score of 0.443 ± 0.81. Consider DSGSHRGW, for which the amyloid nucleation score was found to be 0.289 ± 0.28. For DSIMNGR the value was 0.713 ± 0.74.

DSINCCMMCYEK gave an amyloid nucleation score of 7.567 ± 0.071. In turn, DSLSNLCDFCSSK yielded an amyloid nucleation score of 0.668 ± 0.5. Regarding DSRRGYPMMSMMWW, the amyloid nucleation score was -0.354 ± 0.39. Consider DSRVLSDYLSSYLSLKYLLV, for which the amyloid nucleation score is -0.031 ± 0.62. For DSSWTWKDVV, the amyloid nucleation score was found to be 0.397 ± 1.2. As to DSVLQDTLIMWCSMKTVSPS, the amyloid nucleation score is -0.075 ± 0.29. As for DSYCLRMPIGSCIDWWGKGV, the amyloid nucleation score was -0.058 ± 0.61. For DSYDLY, the amyloid nucleation score result is “inactive”.

For DSYILRGNSVLGGGTFSVIR, the amyloid nucleation score is 0.062 ± 0.53. For the substance DSYSLSN, the amyloid nucleation score was -0.179 ± 0.27. For DTLDLQLRNVRLTRACMAQY the value was 0.329 ± 0.34; for DTPWWGSGALVFKLCACSAY, -0.341 ± 0.59; for DTRNPRITALRY, 0.431 ± 0.39. For DTRTSNNPALFRGFTALRVR the value was 0.412 ± 0.54; for DTVYLLGGCCLVVRLNLFIG, 3.77 ± 0.15. For DVGMLV the value was -0.107 ± 0.31; for DVIMEGFAMCVWSRVTALLE, 0.492 ± 0.85; for DVNNIHLRKLTDCHI, 1.61 ± 0.36. In turn, DVTLMCYRQCLDMDMPIDLG yielded an amyloid nucleation score of 0.733 ± 0.32.

For DVVICRYSAVIRVFLTLKFK, the amyloid nucleation score is -0.202 ± 0.49. For DVVLDYSRQTYKDPASRMYA, the amyloid nucleation score is 1.1 ± 0.71. With DVVPSSGFVFMIRTDTLSHN, the amyloid nucleation score was -0.265 ± 1.2. For DVVTSGILTASSRWYVRRGR, the amyloid nucleation score is -0.729 ± 1.2.

In the case of DWFSGLNRPRCIKLAQGGTG, the amyloid nucleation score worked out at 0.441 ± 0.38. Consider DWRNAFLLCYANRNVQTCMS, for which the amyloid nucleation score is -0.673 ± 0.3. Take DYFRYRIFKKSYHKPAVICI: the amyloid nucleation score is -0.415 ± 0.52. For the substance DYGDYCAKWTQSYNALTVRF, the amyloid nucleation score was found to be 0.594 ± 0.58. Consider DYGIVGAEVKKCLIL, for which the amyloid nucleation score came to 0.433 ± 0.44. For DYSLKCLTPVVSDRAWCRLN the value was 0.398 ± 0.83. For DYSYCKVNPLNSVLSVLVLL the value was -0.34 ± 0.29. As for DYTDMYTC, the amyloid nucleation score was found to be 0.571 ± 0.5.

As for EAGQLLL, the amyloid nucleation score result was “inactive”. Consider EAMLKFTVYTIVRSFNAKSR, for which the amyloid nucleation score was 1.11 ± 0.32.

Take EARWRQSC: the amyloid nucleation score came out at 0.387 ± 0.36. The substance EASTYHFSCGRANVTDELGT returned an amyloid nucleation score of 0.882 ± 0.53. Turning to ECGYFRLVSGERYTPVSSMR, the amyloid nucleation score is -0.139 ± 0.37. Regarding ECKWSLKNHYWVYDGLRGGT, the amyloid nucleation score is -0.378 ± 0.78.

As for ECMRTRFMGNYNGPGISILY, the amyloid nucleation score entry was “inactive”.

With EDSMNNL, the amyloid nucleation score was -0.127 ± 0.84. Regarding EDVAYYGNGFRLTYDRQITL, the amyloid nucleation score was -0.733 ± 0.67. With EEPLLSDMCITVGVRFLNKS, the amyloid nucleation score amounted to 3.36 ± 0.22. On to EFAKNSFAKNTFAADAWLII, for which the amyloid nucleation score amounted to 0.802 ± 0.78. Substance EFIIVRRDGLGAVYSVTNAF gave an amyloid nucleation score of 1.08 ± 0.7. With EFIKWRAIGENSYGKGDMDR, the amyloid nucleation score came out at 0.387 ± 1. The substance EFKWYFAISDKCYVRLKLIK came in with an amyloid nucleation score of 0.751 ± 0.45. For EFLNSNLLNTYMKLFLIITH the value was 3.36 ± 0.21; for EFTGDRQSYFCLQYSCTSLR, -0.096 ± 1.7. On to EFVVGDKR, for which the amyloid nucleation score is -0.311 ± 0.82.

EGPMLVCVLVVSTTGIGRGC had an amyloid nucleation score of 1.58 ± 0.59. With EGTFLSGEHTFLNLGFSNRG, the amyloid nucleation score was 0.019 ± 0.6. For the substance EGTFRLID, the amyloid nucleation score was determined as 0.047 ± 0.3.

As to EGYVK, the amyloid nucleation score was 1.1 ± 0.53.
